Reference: patent publication US20130288373A1 (published 2013)

Key:
[1] = biological target: T1, Flt3D1-D3, recombinant human Flt3 ectodomain variant (residues 27-346) with C-terminal hexahistidine tag (human, UniProt P36888 27-346, N-linked glycosylation (glycosylated protein from HEK293 cells)); test: isothermal titration calorimetry at 37 °C, Flt3 ectodomain titrated with FL, one binding site model
T1 construct: also called Flt3D13(27-346)
T1 sequence: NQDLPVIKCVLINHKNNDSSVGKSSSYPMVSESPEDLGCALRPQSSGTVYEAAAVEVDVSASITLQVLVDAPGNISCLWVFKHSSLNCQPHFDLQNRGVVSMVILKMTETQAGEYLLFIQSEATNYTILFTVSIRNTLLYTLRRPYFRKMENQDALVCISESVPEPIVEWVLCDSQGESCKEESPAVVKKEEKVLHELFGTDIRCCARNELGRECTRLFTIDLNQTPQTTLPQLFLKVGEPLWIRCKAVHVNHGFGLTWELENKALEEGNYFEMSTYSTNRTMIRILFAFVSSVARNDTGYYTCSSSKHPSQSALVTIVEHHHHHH
Description: (§1) (A-B) Isolation of Flt3D1-D5:FL and Flt3D1-D4:FL by size-exclusion chromatography (SEC). Also shown are Coomassie-stained SDS-PAGE strips corresponding to the peak fraction of the isolated complexes. The elution profiles of the complexes are characterized by large shifts to a single, faster migrating peak corresponding to the respective complex. (C) Size-exclusion chromatography on the Flt3D1-D3:FL mixture at the end of an ITC experiment, showing that a large amount of Flt3D1-D3 remains in the unbound form. Identical elution profiles were obtained in standard SEC experiments as well, in the presence of a large molar excess of FL. (D-F) Binding isotherms and thermodynamic parameters of FL binding to Flt3 ectodomains obtained by Isothermal Titration calorimetry (ITC). All experiments were performed by titrating recombinant Flt3 extracellular domains with FL.
(§2) Experiments were carried out using a VP-ITC MicroCalorimeter (MicroCal, MA) at 37° C., and data were analyzed using the Origin ITC analysis software package supplied by MicroCal. Purified recombinant Flt3 ectodomain constructs and FL were dialyzed overnight against 10 mM Tris-HCl, pH 7.4, at 4° C. Protein concentrations were measured spectrophotometrically at 280 nm using calculated theoretical extinction coefficients and all solutions were extensively degassed prior to use. The sample was stirred at a speed of 400 rpm throughout. The thermal titration data were fit to the “one binding site model”, and apparent molar reaction enthalpy (ΔH°), apparent entropy (ΔS°), association constant (Ka) and stoichiometry of binding (N) were determined. Several titrations were performed to evaluate reproducibility.

[2] = biological target: T2, Flt3D1-D4, recombinant human Flt3 ectodomain variant (residues 27-434) with C-terminal hexahistidine tag (human, UniProt P36888 27-434, N-linked glycosylation (glycosylated protein from HEK293 cells)); test: as above
T2 construct: Secreted from HEK293T or HEK293S GnTI-/- cells and glycosylated; also called Flt3D14(27-434); Flt3D1-4
T2 sequence: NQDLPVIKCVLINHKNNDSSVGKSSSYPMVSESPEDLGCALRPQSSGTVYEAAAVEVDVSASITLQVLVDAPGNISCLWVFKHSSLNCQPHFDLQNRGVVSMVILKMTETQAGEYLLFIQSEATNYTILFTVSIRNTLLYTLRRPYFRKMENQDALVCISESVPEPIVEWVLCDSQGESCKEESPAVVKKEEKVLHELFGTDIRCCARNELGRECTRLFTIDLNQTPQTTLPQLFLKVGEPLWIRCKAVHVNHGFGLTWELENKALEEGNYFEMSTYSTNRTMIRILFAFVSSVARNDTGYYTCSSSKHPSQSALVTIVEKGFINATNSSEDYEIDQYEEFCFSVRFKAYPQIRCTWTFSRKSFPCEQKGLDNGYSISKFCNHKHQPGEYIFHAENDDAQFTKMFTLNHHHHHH
Description: as §1, §2

[3] = biological target: T3, Flt3D1-D5, recombinant human Flt3 ectodomain (residues 27-541) with C-terminal hexahistidine tag (human, UniProt P36888 27-541, N-linked glycosylation at 43, 100, 151, 306, 323, 351, 354, 473, 502 (at least partially occupied, by mass spectrometry)); test: as above
T3 construct: Secreted from HEK293T or HEK293S GnTI-/- cells and glycosylated; The secretion signal is not part of the mature protein; also called Flt3D15(27-541); Flt3D1-5
T3 sequence: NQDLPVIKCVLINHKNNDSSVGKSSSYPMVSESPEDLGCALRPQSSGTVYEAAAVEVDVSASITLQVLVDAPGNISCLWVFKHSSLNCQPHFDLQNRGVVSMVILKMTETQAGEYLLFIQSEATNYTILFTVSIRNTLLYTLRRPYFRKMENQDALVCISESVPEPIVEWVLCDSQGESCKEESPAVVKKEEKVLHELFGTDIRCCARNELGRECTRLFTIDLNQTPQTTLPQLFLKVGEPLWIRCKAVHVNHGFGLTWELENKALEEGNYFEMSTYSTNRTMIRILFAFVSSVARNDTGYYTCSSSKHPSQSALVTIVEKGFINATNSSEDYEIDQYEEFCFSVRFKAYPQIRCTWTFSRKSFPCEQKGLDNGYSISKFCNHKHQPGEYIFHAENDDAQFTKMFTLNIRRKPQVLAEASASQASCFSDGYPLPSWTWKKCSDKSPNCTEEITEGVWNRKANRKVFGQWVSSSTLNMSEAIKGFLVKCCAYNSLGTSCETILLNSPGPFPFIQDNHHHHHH
Description: as §1, §2

[4] = biological target: T4, Flt3D1, recombinant human Flt3 ectodomain variant (residues 27-161) with C-terminal hexahistidine tag (human, UniProt P36888 27-161, N-linked glycosylation (glycosylated protein from HEK293 cells)); test: size-exclusion chromatography with FL
T4 construct: also called Flt3D1(27-161)
T4 sequence: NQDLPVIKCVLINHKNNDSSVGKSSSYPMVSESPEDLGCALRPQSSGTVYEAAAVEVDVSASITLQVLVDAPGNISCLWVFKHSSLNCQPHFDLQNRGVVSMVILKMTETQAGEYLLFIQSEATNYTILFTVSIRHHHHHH

[5] = biological target: T5, Flt3D1-D2, recombinant human Flt3 ectodomain variant (residues 27-244) with C-terminal hexahistidine tag (human, UniProt P36888 27-244, N-linked glycosylation (glycosylated protein from HEK293 cells)); test: size-exclusion chromatography with FL
T5 construct: also called Flt3D12 (27-244)
T5 sequence: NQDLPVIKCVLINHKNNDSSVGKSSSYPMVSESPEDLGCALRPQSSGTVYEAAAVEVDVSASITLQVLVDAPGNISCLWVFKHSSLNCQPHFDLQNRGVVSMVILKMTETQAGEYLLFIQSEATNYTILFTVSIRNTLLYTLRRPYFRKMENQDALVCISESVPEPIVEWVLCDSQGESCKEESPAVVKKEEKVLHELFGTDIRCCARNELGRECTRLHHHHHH

[6] = biological target: T2, Flt3D1-D4, recombinant human Flt3 …; test: ITC at 37 C, one binding site model
Experimental: as §2
(§3) To quantify the thermodynamics, stoichiometry and affinity of extracellular complexes and to dissect the contribution of individual ectodomain modules to complex formation, isothermal titration calorimetry (ITC) was employed. This led to a number of consensus observations (FIG. 1D-F). […] Upon adjusting the Flt3 concentration to the approximate active receptor fraction (˜50%) estimated via the chromatographic elution profile of complex formation, a stoichiometry and thermodynamic signature consistent with that of the other two complexes is detected (FIG. 1F).

[7] = biological target: T3, Flt3D1-D5, recombinant human Flt3 …; test: ITC at 37 C, one binding site model
Experimental: as §2, §3

[8] = biological target: T1, Flt3D1-D3, recombinant human Flt3 …; test: ITC at 37 C, Flt3 ectodomain titrated with FL; Flt3D1-D3 ectodomain; about 50% active receptor fraction
Experimental: as §2, §3

[9] = biological target: T3, Flt3D1-D5, recombinant human Flt3 …; test: ITC at 37 C, Flt3 ectodomain titrated with FL; Flt3D1-D5 ectodomain
Experimental: as §2, §3

[10] = biological target: T2, Flt3D1-D4, recombinant human Flt3 …; test: ITC at 37 C, Flt3 ectodomain titrated with FL; Flt3D1-D4 ectodomain
Experimental: as §2, §3

B1: recombinant human FL (fms-like tyrosine kinase receptor-3 ligand) produced in E. coli (ligand)
chain: TQDCSFQHSPISSDFAVKIRELSDYLLQDYPVTVASNLQDEELCGGLWRLVLAQRWMERLKTVAGSKMQGLLERVNTEIHFVTKCAFQPPPSCLRFVQTNISRLLQETSEQLVALKPWITRQNFSRCLELQCQP
notes: Dimeric cytokine; also called Flt3 ligand; cognate ligand
Work on B1 yielded a Kd [1] of 74.6 nM, an N [1] of 0.121 and a ΔH [1] of -24.9 kcal/mol. It also gave a ΔS [1] of -47.5 cal mol-1 K-1, an N [2] of 0.45 and a ΔH [2] of -55.9 kcal/mol. The ΔS [2] was -146 cal mol-1 K-1, the N [3] was 0.42 and the ΔH [3] was -51.7 kcal/mol. The ΔS [3] was -130 cal mol-1 K-1, the binding result [4] was “no binding” and the binding result [5] was “no binding”. The “stoichiometry of binding (N)” value [6] was 0.5, the “stoichiometry of binding (N)” value [7] was 0.5 and the Kd [8] was 70 nM. It also gave a Kd [9] of 8.7 nM and a Kd [10] of 40 nM.
